# Test results taken from publication PMC5913134, “The IL-33-PIN1-IRAK-M axis is critical for type 2 immunity in IL-33-induced allergic airway inflammation” (Nature Communications, 2018).
# B1: PIN1: peptidyl-prolyl cis-trans isomerase PIN1 (protein, UniProt Q9QUR7 1-165, looked up)
# Peptidyl-prolyl cis-trans …: MADEEKLPPGWEKRMSRSSGRVYYFNHITNASQWERPSGGSTVGGSSKNGQGEPAKVRCSHLLVKHSQSRRPSSWRQEKITRSKEEALELINGYIQKIKSGEEDFESLASQFSDCSSAKARGDLGPFSRGQMQKPFEDASFALRTGEMSGPVFTDSGIHIILRTE
# B2: S110A: IRAK-M mutant, Ser110 substituted to Ala (protein)
# chain: MAGNCGARGALSAHTLLFDLPPALLGELCAVLDSCDGALGWRGLAERLSSSWLDVRHIEKYVDQGKSGTRELLWSWAQKNKTIGDLLQVLQEMGHRRAIHLITNYGAVLAPSEKSYQEGGFPNILFKETANVTVDNVLIPEHNEKGILLKSSISFQNIIEGTRNFHKDFLIGEGEIFEVYRVEIQNLTYAVKLFKQEKKMQCKKHWKRFLSELEVLLLFHHPNILELAAYFTETEKFCLIYPYMRNGTLFDRLQCVGDTAPLPWHIRIGILIGISKAIHYLHNVQPCSVICGSISSANILLDDQFQPKLTDFAMAHFRSHLEHQSCTINMTSSSSKHLWYMPEEYIRQGKLSIKTDVYSFGIVIMEVLTGCRVVLDDPKHIQLRDLLRELMEKRGLDSCLSFLDKKVPPCPRNFSAKLFCLAGRCAATRAKLRPSMDEVLNTLESTQASLYFAEDPPTSLKSFRCPSPLFLENVPSIPVEDDESQNNNLLPSDEGLRIDRMTQKTPFECSQSEVMFLSLDKKPESKRNEEACNMPSSSCEESWFPKYIVPSQDLRPYKVNIDPSSEAPGHSCRSRPVESSCSSKFSWDEYEQYKKE
# B3: IRAK-M N-terminal domain: N-terminal (aa 1-220) of IRAK-M (protein, UniProt Q8K4B2 1-220, looked up, fragment)
# chain: MAGRCGARGALSPQLLLFDLPPALLGELCGILDSCDGPLGWRGLAERLSNSWLDVRHIEKYVNQGKSGTRELLWSWAQKNKTIGDLLEVLQDMGHQRAIHLIINYGVSWTPSVQTHHELPFPSFPPEVKHACRENDPGPLEPANVTVDNVLVPEHNEKGTLQKTPISFQSILEGTKHFHKDFLIGEGEIFEVYRVDIRNQAYAVKLFKQEKKMQLKKHWK
# B4: IRAK-M: Interleukin receptor associated kinase M (protein, UniProt Q8K4B2 1-609, looked up)
# Interleukin-1 …: MAGRCGARGALSPQLLLFDLPPALLGELCGILDSCDGPLGWRGLAERLSNSWLDVRHIEKYVNQGKSGTRELLWSWAQKNKTIGDLLEVLQDMGHQRAIHLIINYGVSWTPSVQTHHELPFPSFPPEVKHACRENDPGPLEPANVTVDNVLVPEHNEKGTLQKTPISFQSILEGTKHFHKDFLIGEGEIFEVYRVDIRNQAYAVKLFKQEKKMQLKKHWKRFLSELEVLLLFRHPHILELAAYFTETEKLCLVYPYMSNGTLFDRLQCTNGTTPLSWHVRISVLIGIAKAIQYLHNTQPCAVICGNVSSANILLDDQLQPKLTDFAAAHFRPNLEQQSSTINMTGGGRKHLWYMPEEYIRQGRLSVKTDVYSFGIVIMEVLTGCKVVLDDPKHVQLRDLLMELMEKRGLDSCLSFLDRKIPPCPRNFSAKLFSLAGRCVATKAKLRPTMDEVLSSLESTQPSLYFAEDPPTSLKSFRCPSPLFLDNVPSIPVEDDENQNNHSVPPKEVLGTDRVTQKTPFECSQSEVTFLGLDRNRGNRGSEADCNVPSSSHEECWSPELVAPSQDLSPTVISLGSSWEVPGHSYGSKPMEKRCSSGLFCSEHEQSKKQ
# B5: Derp1: segmental allergen of Dermatophagoides pteronyssinus (protein, UniProt P08176 99-320, looked up)
# Peptidase 1: TNACSINGNAPAEIDLRQMRTVTPIRMQGGCGSCWAFSGVAATESAYLAYRNQSLDLAEQELVDCASQHGCHGDTIPRGIEYIQHNGVVQESYYRYVAREQSCRRPNAQRFGISNYCQIYPPNVNKIREALAQTHSAIAVIIGIKDLDAFRHYDGRTIIQRDNGYQPNYHAVNIVGYSNAQGVDYWIVRNSWDTNWGDNGYGYFAANIDLMMIEEYPYVVIL
# Experiments:
# [1] = tested on: IRAK-M; assay: IRAK-M protein stability, cycloheximide chase; type: cell-based; settings: for IRAK-M half-life: cycloheximide chase
# Protocol: Fig. 4 PIN1 increases IRAK-M protein stabilization. a After IRAK-M and GFP were coexpressed in WT and PIN1 KO MEFs for 24 h, cells were split equally into 5 dishes. 24 h later cells were treated with cyclohexamide and harvested to monitor IRAK-M, GFP and PIN1 levels at the time points indicated. b Quantification of 3 independent experiments as in a. c WT MEFs stably expressing the TET on inducible short hairpin for PIN1 (shPin1) or pLKO as a control, were expressed with IRAK-M, followed by induction with Doxycycline for 18 h prior to the cyclohexamide chase. d Quantification of 3 independent experiments as in c. e BMDCs from WT or PIN1 KO mice were treated with IL-33 and the levels of IRAK-M were monitored at different time points after induction. f Quantification of 3 independent experiments as in e. g PIN1 KO MEFs were expressed with IRAK-M alone or in combination with PIN1 or its mutants W34A or K63A for 24 h, followed by the cyclohexamide chase to assay IRAK-M stability. h Quantification of 3 independent experiments as in g. i IRAK-M or its different mutants; S110A, S110E and P111A were expressed in WT MEFs, followed by the cyclohexamide chase to assay IRAK-M stability. j Quantification of 3 independent experiments as in i. k IRAK-M or its different mutants were stably expressed in DC2.4 cells, followed by the cyclohexamide chase to monitor IRAK-M stability. l Quantification of 3 independent experiments as in k. The data were analyzed by a Student’s two-tailed t test and the values are reported as mean ± standard errors of the means (SEM). *- statistical significance (P < 0.05), **- significance (P < 0.01)
# [2] = tested on: PIN1-IRAK-M interaction; assay: Co-immunoprecipitation of PIN1 and IRAK-M; type: binding; settings: for PIN1 interaction (CO-IP), IRAK-M constructs: HEK293 cells, after IL-33 treatment
# Protocol: Fig. 2 IL-33 induces IRAK-M phosphorylation and binding to PIN1. a GST PIN1 pulldown assay with DC2.4 cell extracts either non-treated or treated with IL-33 (100 ng/ml) or LPS (100ng/ml) for 1 h. […] The cells were washed with fresh medium and treated with 100 ng/ml IL-33 for the indicated times prior to IRAK-M immunoprecipitation. d DC2.4 cells stably expressing IRAK-M were treated with IL-33 and at the indicated time points were subjected to CO-IP using anti-PIN1 antibody and blotted for IRAK-M. e HEK293 cells were transfected with different IRAK-M constructs expressing the N’ terminal domain (aa1-220), the middle portion of the protein (aa220-440) or the C’ terminal domain (aa 440-630), and then treated with IL-33, followed by CO-IP for PIN1. f DC2.4 cells stably expressing IRAK-M were treated with IL-33 and subjected to GST or GST-PIN1 pull-down.
# Cells from one 10-cm dish were homogenized in lysis buffer containing 150 mM NaCl, 1% NP-40, 0.5% deoxycholate, 0.1% SDS, 50 mM Tris-HCl (pH 7.7), 1 mM phenylmethylsulfonyl fluoride (PMSF), 1 mM dithiothreitol, and protease inhibitors. Clarified supernatants were incubated with pre incubated immobilized beads rProtein A agarose beads (RepliGen) premixed with PIN1, GFP or IRAK-M antibody or, as a control, IgG overnight at 4 °C. The beads were washed extensively with lysis buffer before elution in SDS sample buffer.
# [3] = tested on: asthmatic patients; assay: Segmental allergen (Derp1) challenge in asthmatic patients; type: in vivo, human
# Text: Fig. 7 IRAK-M expression is elevated in asthmatic human samples after Derp1 segmental allergic challenge. a Representative H&E staining and PAS staining of lung biopsies before and after Derp1 segmental challenge, as well as BALF and brush cytospins before and after treatment stained with Giemsa (n = 4). b Cytospin slides of brushing, total BALF cells, BALF CD15 + and CD205 + cells samples were immune stained for IRAK-M. c Quantification of IRAK-M expression in total BALF cells, BALF CD15 + and CD205 + cells samples as in b using Velocity program. d Total BALF cells were immune stained for PIN1 and pS71PIN1 and quantified using Velocity program e. f RNA was extracted from BALF cellular contents and analyzed for the relative expression of Il6, Csf3, Cxcl2 and Ccl5 by qRT-PCR. The data were analyzed by a Student’s two-tailed t test and the values are reported as mean ± standard errors of the means (SEM). *- statistical significance (P < 0.05), **- significance (P < 0.01). Scale bar = 50 µm
# For human subject study, non-smokers with a history of mild asthma with an FEV1 greater than 70% of predicted, using only intermittent beta-agonists for treatment, who were between the ages of 18 and 55 were recruited to undergo segmental allergen challenge via bronchoscopy. Participants were selected on the basis of both a positive methacholine PC20 < 8 mg/mL and a positive skin prick test to Dermatophagoides pternyssinus (DerP1). A positive intradermal that yielded a reaction at or below the concentration threshold of 0.1 AU/mL following the methods set forth in Parulekar et al., was also required, although only the DerP1 antigen was used.
# After recoding baseline vitals, PO2, FEV1, PEFR, appropriate anesthetic medication was administered. Then, a fiberoptic bronchoscope with bronchoalveolar lavage (BAL) was performed by sequential instillation and removal of 5 aliquots of 50 mL normal saline in the lingula. Brushings and biopsies were taken after the BAL. The bronchoscope was then re-wedged on the contra lateral side (right middle lobe) in a readily identifiable sub-segment. A safety dose (100 × the minimum dose that caused reaction during the intradermal) of 5 mL of allergen in a prefilled syringe was instilled followed by 5 mL of air and the wedge was maintained for 5 minutes. Subject’s safety parameters were assessed after administration of the sub-threshold allergen dose. If the investigator determined the subject had well tolerated the safety dose, full dose of allergen (1000 × the minimum dose that caused reaction during the intradermal) in a pre-filled syringe was administered followed by 5 ml of air and the wedge was maintained for 5 min. Antigen lot to lot consistency was maintained between the participants intradermal skin test and segmental challenge. Participants were monitored for safety until 2 h after the procedure. After allergen challenge, if the subject developed systemic allergic reaction such as diffuse urticaria, angioedema, stridor, hypotension, syncope or any other serious adverse event, subject would be dropped from the study and only be followed up for safety reasons. Participants were not be allowed to leave for home until their condition was stable as assessed by the study physician.
# Pre-bronchoscopy and bronchoscopy eligibility procedures were followed as detailed above prior to 2nd bronchoscopy. Specimens taken were BAL first, followed by brushings, and finally biopsies. These were taken where the segmental allergen challenge was placed (right middle lobe). Drug and post-procedure follow up and monitoring were followed as detailed above.
molecule,measurement,setting,value
B1,increase in IRAK-M half-life,"[1]; PIN1-deficient MEFs (text PIN1 KD, Fig. 4g legend PIN1 KO) co-expressing IRAK-M with PIN1 or mutant",more than 50%
B2,"PIN1 interaction (CO-IP), IRAK-M constructs",[2],abolished the PIN1-IRAK-M interaction
same,decrease of IRAK-M protein stability,"[1]; mutant IRAK-M, WT MEFs, reproduced in DC2.4 cells",~ 50%
B3,"PIN1 interaction (CO-IP), IRAK-M constructs",[2],mainly evident
B4,"PIN1 interaction (CO-IP), IRAK-M mutants","[2]; stably expressing DC2.4 cells, with/without IL-33",evident only after IL-33 stimulation
same,IRAK-M half-life,[1]; PIN1 KO MEFs,< 3 h
same,IRAK-M half-life,[1]; WT MEFs,~ 6 h
same,reduction of IRAK-M half-life,"[1]; inducible PIN1 knock down (KD), MEFs",more than 50%
B5,"immunological reaction (granulocyte infiltration, tissue remodeling)","[3]; asthmatic patients, segmental Derp1, n = 4",massive immunological reaction
same,IRAK-M expression in bronchial epithelial cells,"[3]; biopsies, before and after Derp1 challenge",elevated
same,IRAK-M protein expression in lung brush samples,"[3]; brush cytospins, after Derp1 challenge",greatly elevated
same,IRAK-M expression in CD15+ and CD205+ BALF cells,"[3]; sorted eosinophils (CD15+) and dendritic/monocytes (CD205+), after Derp1",highly elevated
same,PIN1 protein expression,"[3]; total BALF cytospins, Derp1",did not seem to change
same,pS71 PIN1 phosphorylation,"[3]; total BALF cytospins, Derp1",decrease in pS71 phosphorylation
same,IRAK-M expression in total BALF cells,"[3]; total BALF, after Derp1 challenge",highly elevated
